According to US20240084003A1 (SIMCERE ZAIMING PHARMACEUTICAL, published 2024):
Each block holds one binder with its values, some of them ahead of it.

Key:
[1] = molecular target: T1, murine CD22 protein (ACROBiosystems, SI2-M52Ha) (murine, UniProt P35329 22-708); assay: ELISA, coated murine CD22, 100 nM Ab
T1 construct: extracellular domain; also called murine CD22-ECD; murine CD22-ECD-His
T1 sequence (looked up): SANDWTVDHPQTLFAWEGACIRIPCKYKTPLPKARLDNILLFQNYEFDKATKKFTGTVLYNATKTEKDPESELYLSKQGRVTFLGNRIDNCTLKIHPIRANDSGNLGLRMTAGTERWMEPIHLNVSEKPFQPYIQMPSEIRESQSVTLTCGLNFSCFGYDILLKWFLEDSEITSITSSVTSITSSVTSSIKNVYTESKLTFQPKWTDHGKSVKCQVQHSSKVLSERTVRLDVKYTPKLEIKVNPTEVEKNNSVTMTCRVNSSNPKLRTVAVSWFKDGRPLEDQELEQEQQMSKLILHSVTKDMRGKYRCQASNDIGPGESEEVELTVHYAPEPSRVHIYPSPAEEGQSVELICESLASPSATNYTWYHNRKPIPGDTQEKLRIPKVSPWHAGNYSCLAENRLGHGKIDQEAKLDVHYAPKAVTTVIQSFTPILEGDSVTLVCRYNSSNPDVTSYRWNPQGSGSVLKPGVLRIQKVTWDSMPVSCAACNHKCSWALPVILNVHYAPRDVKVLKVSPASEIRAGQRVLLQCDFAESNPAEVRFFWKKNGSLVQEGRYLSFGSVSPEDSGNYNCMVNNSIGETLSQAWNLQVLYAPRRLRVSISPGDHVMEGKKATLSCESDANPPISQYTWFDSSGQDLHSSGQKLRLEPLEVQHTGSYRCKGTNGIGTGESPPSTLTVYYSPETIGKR
Method in brief: (§1)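 Plates were coated overnight at 4° C with 2 μg/mL CD22 protein in PBS and blocked with PBS + 2% BSA. Chimeric antibodies were incubated for 2 h at 37° C, then HRP-labelled secondary for 2 h at 37° C. Bound antibody was read by TMB colour development (30 min, RT) stopped with 1.0 N HCl.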

[2] = molecular target: T2, human CD22, full length, on CHO-K1-human CD22 2C4 cells (human, UniProt P20273 20-847); assay: FACS, CHO-K1-human CD22 2C4 cells
T2 construct: Full-length human CD22 (NCBI NP_001762.2) stably transfected into CHO-K1
T2 sequence: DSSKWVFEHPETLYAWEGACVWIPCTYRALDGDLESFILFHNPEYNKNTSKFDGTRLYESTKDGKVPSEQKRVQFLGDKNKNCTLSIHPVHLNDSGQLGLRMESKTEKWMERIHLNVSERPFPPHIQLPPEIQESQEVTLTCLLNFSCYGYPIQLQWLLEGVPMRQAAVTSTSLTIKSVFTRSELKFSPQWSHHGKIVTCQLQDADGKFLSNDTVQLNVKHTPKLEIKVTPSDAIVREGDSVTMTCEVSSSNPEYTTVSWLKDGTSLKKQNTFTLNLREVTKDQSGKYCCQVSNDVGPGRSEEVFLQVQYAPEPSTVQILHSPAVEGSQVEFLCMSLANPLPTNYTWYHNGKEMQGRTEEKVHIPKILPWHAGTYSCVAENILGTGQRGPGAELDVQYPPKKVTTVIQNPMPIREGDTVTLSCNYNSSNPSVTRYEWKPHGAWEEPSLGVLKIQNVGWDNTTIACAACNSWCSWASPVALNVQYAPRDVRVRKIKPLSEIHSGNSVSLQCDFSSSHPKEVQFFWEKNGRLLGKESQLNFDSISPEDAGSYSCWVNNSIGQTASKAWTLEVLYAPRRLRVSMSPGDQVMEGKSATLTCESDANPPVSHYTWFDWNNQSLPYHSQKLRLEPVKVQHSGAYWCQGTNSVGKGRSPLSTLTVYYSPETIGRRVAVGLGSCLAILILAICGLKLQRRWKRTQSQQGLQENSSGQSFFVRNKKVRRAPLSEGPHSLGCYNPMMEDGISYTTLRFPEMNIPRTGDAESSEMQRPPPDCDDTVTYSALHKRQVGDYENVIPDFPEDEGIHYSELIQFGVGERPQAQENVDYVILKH
Method in brief: (§2)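 Raji cells and CHO-K1 cells expressing human CD22 were blocked in PBS + 2% BSA at 2×10⁶ cells/ml and incubated with chimeric antibody for 2 h on ice. Bound antibody was detected with an Alexa Fluor 488 secondary for 1 h on ice and read by flow cytometry as MFI. EC50 came from curve fitting.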

[3] = molecular target: T1, murine CD22 protein (ACROBiosystems, …); assay: ELISA, coated murine CD22, 0.1 nM Ab
Method in brief: as §1

[4] = molecular target: T1, murine CD22 protein (ACROBiosystems, …); assay: ELISA, coated murine CD22, 0.001 nM Ab
Method in brief: as §1

[5] = molecular target: T1, murine CD22 protein (ACROBiosystems, …); assay: ELISA, coated murine CD22, 0.01 nM Ab
Method in brief: as §1

[6] = molecular target: T1, murine CD22 protein (ACROBiosystems, …); assay: ELISA, coated murine CD22, 0.0001 nM Ab
Method in brief: as §1

[7] = molecular target: T3, human CD22, endogenous on Raji cells (human, UniProt P20273 20-847); assay: FACS, Raji cells
T3 construct: whole, on cells; Endogenous protein of the Raji cell line
T3 sequence (looked up): T2 sequence
Method in brief: as §2

[8] = molecular target: T1, murine CD22 protein (ACROBiosystems, …); assay: ELISA, coated murine CD22, 10 nM Ab
Method in brief: as §1

[9] = molecular target: T1, murine CD22 protein (ACROBiosystems, …); assay: ELISA, coated murine CD22, 0.00001 nM Ab
Method in brief: as §1

[10] = molecular target: T4, CD22 on cynomolgus monkey peripheral blood B cells (cynomolgus monkey (Macaca fascicularis)); assay: FACS, cynomolgus PBMC, CD20+ B cells, antibody 10 nM
T4 construct: whole, on cells; also called cynomolgus monkey B cells
Source text: (§3) The monkey peripheral blood mononuclear cells were extracted from fresh cynomolgus monkey peripheral blood (purchased from Shanghai Medicilon Inc.) according to the instructions of Ficoll-Paque Plus (purchased from GE Healthcare, catalog number: 171440-02). After the cell suspension was centrifuged, the cells were resuspended in PBS containing 1% BSA, and then the cells were counted. At the same time, the murine antibody Brilliant Violet 605 anti-human CD20 (catalog number: 302334, purchased from Biolegend) with monkey CD20 cross-binding activity and the chimeric antibodies to be tested (1 nM, 10 nM and 100 nM) were added and incubated at room temperature for 1 hour. After washing the cells three times, APC-labeled secondary antibody anti-human IgG Fc (catalog number: 409306, purchased from Biolegend) was added. After incubation at room temperature in the dark for 30 minutes, the cells were washed 5 times, gently resuspended with PBS containing 1% BSA, and detected and analyzed by FACS (FACS Canto™, purchased from BD Company). Wherein CD20 was used as a marker of B cells, and the CD20-positive B cell population was gated, the proportion of chimeric antibody positive cells was analyzed, and the proportion of chimeric antibody positive cell population to B cell population was calculated after treatments with the chimeric antibodies at the concentrations of 100 nM, 10 nM and 1 nM, respectively. The scatter plot of double-stained cells by Brilliant Violet 605-labeled CD20 and APC secondary antibody indirectly labeled chimeric antibody is shown in FIG. 10A-FIG. 10B (under the condition of 1 nM of chimeric antibody concentration).

[11] = molecular target: T4, CD22 on cynomolgus monkey peripheral …; assay: FACS, cynomolgus PBMC, CD20+ B cells, antibody 1 nM
Source text: as §3

[12] = molecular target: T4, CD22 on cynomolgus monkey peripheral …; assay: FACS, cynomolgus PBMC, CD20+ B cells, antibody 100 nM
Source text: as §3

OD450 [1]: 0.08 OD450 | EC50 [2]: 1.31 nM | Maximum mean fluorescence intensity [2]: 29200 MFI | OD450 [3]: 0.05 OD450 | OD450 [4]: 0.05 OD450 | OD450 [5]: 0.05 OD450 | OD450 [6]: 0.06 OD450 | EC50 [7]: 1.1 nM | Maximum mean fluorescence intensity [7]: 25600 MFI | OD450 [8]: 0.06 OD450 | OD450 [9]: 0.07 OD450
B1: F1.62.10 human-murine chimeric antibody (antibody, human IgG1, kappa, V domains shown)
VH: QVQLQQSGPELVKPGASVKISCKASGYEFSSIWMNWVKQRPGEGLEWIGRIFPGDGEINYNEKFKGKATLTADRSSTTAYMQLSSLTSEDSAVYFCAGWRIYYGTYGAMDYWGQGTSVTVSS
VL: DIQMTQITSSLSASLGDRVTISCRASQDIGNYLNWYQQKPDGTVKLLIYYTSRLHSGVPSRFSGSGSRTDYSLTISNLQQEDIATYFCQQGNTLPWTFGGGTKLEIKR
notes: Chimeric, human IgG1 / kappa

Proportion of chimeric antibody positive cells to B cells (%) [10]: 21% | Proportion of chimeric antibody positive cells to B cells (%) [11]: 16% | Proportion of chimeric antibody positive cells to B cells (%) [12]: 29%
B2: F1.161.7 (antibody, human IgG1, kappa, V domains shown)
VH: QVQLQQPGAELVKPGASVKMSCKASGYTFTSYWISWVKQRPGQGLEWIGDIYPGTGSSNYNEKFKSKATLTVDTSSSTAYMQLSSLTSEDSAVYYCARLKFEGIGYWGQGTTLTVSS
VL: QIVLTQSPAIMSASLGEEITLTCSASSSVSYMHWFQQKSGTSPKLLIYSISNLASGVPSRFSGSGSGTFYSLTISSVEAEDAADYYCHQWSSYPWTFGGGTKLEIKR
notes: human-murine chimeric IgG1 kappa

Proportion of chimeric antibody positive cells to B cells (%) [10]: 21% | Proportion of chimeric antibody positive cells to B cells (%) [11]: 20% | Proportion of chimeric antibody positive cells to B cells (%) [12]: 22%
B3: F2.127.11 (antibody, human IgG1, lambda, V domains shown)
VH: QVTLKESGPGILQPSQTLSLTCSFSGFSLSTFGMGVGWIRQPSGKGLEWLAHIWWDDDKHYNPALKSRLTISKDTSRNQVFLKIANVDTADGATYFCARDNWVSSLDYWGQGTSVIVSS
VL: QPVITQSSSASFSLGASAELTCTLSSQHSTYTIEWYQQQPLKPPKYVMGLKKDGSHSTGDGIPDRFSGSSSGADRYLSISNIQPEDEAIYICGVSDTIKEQFVYVFGGGTKVTVLG
notes: human-murine chimeric IgG1 lambda; VL name legible
